Laboratory results: article PMC8840930, “PSTPIP1-LYP phosphatase interaction: structural basis and implications for autoinflammatory disorders” (Cellular and Molecular Life Sciences: CMLS, 2022)
“And” between values parts separate entries of the source, which are not always exact repeats. Identical values can stand only once. Ends that are not written are not given here.

B4: F-BAR domain of PSTPIP1 (residues 1-289), wild type (domain or fragment)
chain: not shown
notes: PSTPIP1, human, UniProt O43586, region 1-289 (F-BAR domain); modified pET15b with TEV site; homodimer in the crystals; also called wild type F-BAR; F-BAR of PSTPIP1; not shown: poly-His, N-terminal, cleaved
B6: fluorescein-LYP-CTH (peptide)
peptide: fluorescein-GFANRFSKPKGPRNPPPTWNI
notes: LYP (PTPN22), human, UniProt Q9Y2R2-1, region 787-807 (C-terminal homology segment, CTH); also called fluorescein-labeled LYP-CTH; synthetic peptide of the CTH of LYP (residues 787-807) labeled with fluorescein; source: synthetic peptide (custom synthesized, Thermo Scientific, Germany)

Tests used:
[1] = molecular target: B4; test: ITC; 25 °C; F-BAR of PSTPIP1 in the cell (26.2-30.6 µM), unlabeled LYP-CTH peptide in the syringe (146.8-155.2 µM); 20 mM sodium phosphate pH 7.5, 150 mM NaCl, 5% DMSO; single set of identical sites model; conditions: both partners purified
[2] = molecular target: the molecule itself; test: crystal structure; F-BAR domain of PSTPIP1 (1-289) alone, G258A and wild type; space group P212121, two molecules in the asymmetric unit
[3] = molecular target: T1, F-BAR domain of PSTPIP1 (residues 1-289), wild type (human, UniProt O43586 1-289); test: ITC; unlabeled LYP-CTH peptide in the syringe, F-BAR of PSTPIP1 in the cell; 25 °C; 20 mM sodium phosphate (pH 7.5), 150 mM NaCl, 5% (v/v) DMSO; single set of identical sites model; three single experiments; conditions: both partners purified
T1 construct: His tag cleaved with TEV protease; forms the F-BAR dimer in the crystal; also called PSTPIP1 F-BAR (1-289); F-BAR of PSTPIP1; not shown: poly-His, N-terminal, cleaved

[4] = molecular target: B6; test: fluorescence polarisation; fluorescence anisotropy under saturation conditions; fluorescein-LYP-CTH at 1 µM titrated with the F-BAR of PSTPIP1; stoichiometry from the intersection of asymptotes; conditions: both partners purified
[5] = molecular target: B6; test: fluorescence polarisation; fluorescence anisotropy; fluorescein-LYP-CTH (2 nM) titrated with the F-BAR of PSTPIP1; 20 mM Tris/HCl pH 7.5, 150 mM NaCl, 0.1 mg/mL BSA; 25 °C; apparent kd, one-to-one binding model; conditions: both partners purified
[6] = molecular target: T2, F-BAR domain of PSTPIP1 (residues 1-289), A230T (human, UniProt O43586 1-289, A230T); test: as above; conditions: both partners purified
T2 construct: PSTPIP1, human, UniProt O43586, region 1-289 (F-BAR domain), patient mutation A230T; also called A230T mutant; not shown: poly-His, N-terminal, cleaved

[7] = molecular target: B4; test: as above; conditions: both partners purified

T2 sequence (O43586 1-289 A230T): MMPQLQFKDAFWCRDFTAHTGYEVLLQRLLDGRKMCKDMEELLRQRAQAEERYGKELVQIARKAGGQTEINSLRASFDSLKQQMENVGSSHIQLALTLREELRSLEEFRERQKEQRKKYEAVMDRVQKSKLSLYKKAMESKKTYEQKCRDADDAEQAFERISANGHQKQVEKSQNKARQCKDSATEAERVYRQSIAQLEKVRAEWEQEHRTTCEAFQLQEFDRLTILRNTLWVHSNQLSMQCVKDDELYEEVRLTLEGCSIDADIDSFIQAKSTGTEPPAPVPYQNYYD

B1: LYP-CTH peptide, unlabeled (residues 787-807) (peptide)
peptide: GFANRFSKPKGPRNPPPTWNI
notes: LYP (PTPN22), human, UniProt Q9Y2R2-1, region 787-807 (C-terminal homology segment, CTH); also called unlabeled LYP-CTH; peptide of the CTH of LYP; source: synthetic peptide (custom synthesized, Genosphere Biotechnologies, France)
Kd [1]: 253 nM
stoichiometry N [1]: 0.48 molecules of LYP-CTH for each PSTPIP1

B2: F-BAR domain of PSTPIP1 (residues 1-289), G258A (domain or fragment)
chain: not shown
notes: PSTPIP1, human, UniProt O43586, residues 1-289 (F-BAR domain), patient mutation G258A; homodimer in the crystal; also called G258A mutant; PSTPIP1-G258A; not shown: poly-His, N-terminal, cleaved
stoichiometry N [2]: 2

B3: unlabeled peptide of the CTH of LYP (residues 787-807) (peptide)
peptide: GFANRFSKPKGPRNPPPTWNI
notes: lymphoid phosphatase LYP (PTPN22), human, C-terminal homology segment, region 787-807; also called LYP-CTH; source: synthetic peptide (Genosphere Biotechnologies)
Kd [3]: 263 nM and 229 nM and 267 nM
stoichiometry N [3]: 0.5 and 0.49 and 0.46

B4
binding result [2]: binds
stoichiometry N [4]: 2 molecules of PSTPIP1 for each LYP-CTH

B5: F-BAR domain of PSTPIP1 (residues 1-289), E250Q (domain or fragment)
chain: not shown
notes: PSTPIP1, human, UniProt O43586, region 1-289 (F-BAR domain), patient mutation E250Q; not shown: poly-His, N-terminal, cleaved
fold lower binding affinity than the wild type F-BAR [5]: ~60 fold

B6
Kd [6]: ~20 nM
Kd [7]: ~20 nM

B7: F-BAR domain of PSTPIP1 (residues 1-289), W232A (domain or fragment)
chain: not shown
notes: PSTPIP1, human, UniProt O43586, region 1-289 (F-BAR domain), W232A; not shown: poly-His, N-terminal, cleaved
fold lower binding affinity than the wild type F-BAR [5]: ~60 fold
